Positions count from the first letter of the chain named. Like-named read-outs stand apart in the source and are kept apart here. Values belong to the molecule of their own block, whether it stands above or below them. Groups on a side chain read outwards from the residue. No end group written: not given here. maleimide = maleimide group of MeO-PEG-maleimide, which reacts with the Cys side-chain thiol
Biological target: T1, human mpl receptor (human, UniProt P40238 26-635)
T1 sequence (looked up): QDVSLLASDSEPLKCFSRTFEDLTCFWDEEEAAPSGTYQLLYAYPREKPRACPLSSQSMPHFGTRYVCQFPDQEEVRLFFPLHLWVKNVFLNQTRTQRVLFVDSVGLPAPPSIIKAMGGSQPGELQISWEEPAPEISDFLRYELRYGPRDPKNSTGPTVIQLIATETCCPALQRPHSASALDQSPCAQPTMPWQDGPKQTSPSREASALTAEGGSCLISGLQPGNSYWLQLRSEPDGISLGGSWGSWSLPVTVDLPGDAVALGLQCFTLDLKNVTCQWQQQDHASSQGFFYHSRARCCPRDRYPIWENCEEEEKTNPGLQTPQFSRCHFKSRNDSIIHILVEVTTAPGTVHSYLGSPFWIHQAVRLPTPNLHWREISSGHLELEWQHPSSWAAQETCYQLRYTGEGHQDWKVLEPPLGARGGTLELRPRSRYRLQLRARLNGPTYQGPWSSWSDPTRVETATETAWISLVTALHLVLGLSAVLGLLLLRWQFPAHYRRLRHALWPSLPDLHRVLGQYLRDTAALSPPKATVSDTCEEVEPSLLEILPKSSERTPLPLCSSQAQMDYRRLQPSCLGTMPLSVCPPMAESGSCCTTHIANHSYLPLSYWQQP
Test: cell-based or functional assay

Relative Potency (EC50), proliferation of murine 32D cells transfected with human mpl receptor (scale: log units of activity): 4
Molecule: TPO (ligand)

Relative Potency (EC50), proliferation of murine 32D cells transfected with human mpl receptor (scale: log units of activity): 4
Molecule: TMP-(Gly)n-TMP, n = 14 (peptide)

Relative Potency (EC50), proliferation of murine 32D cells transfected with human mpl receptor (scale: log units of activity): 4
Molecule: TMP-(Gly)n-TMP, n = 9 (peptide)

Relative Potency (EC50), proliferation of murine 32D cells transfected with human mpl receptor (scale: log units of activity): 4
Molecule: TMP-(Gly)n-TMP, n = 10 (peptide)

Relative Potency (EC50), proliferation of murine 32D cells transfected with human mpl receptor: 5 log units of activity (1 unit is approximately 10-fold)
B1: TMP-GGGC(PEG)GGGG-TMP (SEQ ID NO. 18) (peptide)
peptide: IEGPTLRQWLAARAGGGC([maleimide-mPEG 5 kDa])GGGGIEGPTLRQWLAARA

Relative Potency (EC50), proliferation of murine 32D cells transfected with human mpl receptor: 4 log units of activity (1 unit is approximately 10-fold)
B2: TMP-(Gly)n-TMP, n = 1 (peptide)
peptide: IEGPTLRQWLAARAGIEGPTLRQWLAARA

Relative Potency (EC50), proliferation of murine 32D cells transfected with human mpl receptor: 4 log units of activity (1 unit is approximately 10-fold)
B3: TMP-(Gly)n-TMP, n = 6 (peptide)
peptide: IEGPTLRQWLAARAGGGGGGIEGPTLRQWLAARA

Relative Potency (EC50), proliferation of murine 32D cells transfected with human mpl receptor: 4 log units of activity (1 unit is approximately 10-fold)
B4: TMP-(Gly)n-TMP, n = 5 (peptide)
peptide: IEGPTLRQWLAARAGGGGGIEGPTLRQWLAARA

Relative Potency (EC50), proliferation of murine 32D cells transfected with human mpl receptor: 3 log units of activity (1 unit is approximately 10-fold)
B5: TMP-GPNG-TMP (SEQ ID NO. 10) (peptide)
peptide: IEGPTLRQWLAARAGPNGIEGPTLRQWLAARA

Relative Potency (EC50), proliferation of murine 32D cells transfected with human mpl receptor: 4 log units of activity (1 unit is approximately 10-fold)
B6: TMP-(Gly)n-TMP, n = 4 (peptide)
peptide: B5 peptide with P16G, N17G

Relative Potency (EC50), proliferation of murine 32D cells transfected with human mpl receptor: 4 log units of activity (1 unit is approximately 10-fold)
B7: TMP-(Gly)n-TMP, n = 2 (peptide)
peptide: IEGPTLRQWLAARAGGIEGPTLRQWLAARA

Relative Potency (EC50), proliferation of murine 32D cells transfected with human mpl receptor: 3.5 log units of activity (1 unit is approximately 10-fold)
B8: TMP C-C dimer (SEQ ID NO: 2) (peptide)
peptide: IEGPTLRQWLAARA
modifications: also: dimer of two TMP chains joined at C-termini through a Lys branch (structure only in a drawing)

Relative Potency (EC50), proliferation of murine 32D cells transfected with human mpl receptor: 1 log units of activity (1 unit is approximately 10-fold)
B9: TMP monomer (SEQ ID NO: 1) (peptide)
peptide: IEGPTLRQWLAARA

Relative Potency (EC50), proliferation of murine 32D cells transfected with human mpl receptor: 4.5 log units of activity (1 unit is approximately 10-fold)
B10: TMP-(Gly)n-TMP, n = 0 (peptide)
peptide: IEGPTLRQWLAARAIEGPTLRQWLAARA

Relative Potency (EC50), proliferation of murine 32D cells transfected with human mpl receptor: 4 log units of activity (1 unit is approximately 10-fold)
B11: TMP-(Gly)n-TMP, n = 3 (peptide)
peptide: IEGPTLRQWLAARAGGGIEGPTLRQWLAARA

Relative Potency (EC50), proliferation of murine 32D cells transfected with human mpl receptor: 4 log units of activity (1 unit is approximately 10-fold)
B12: TMP-(Gly)n-TMP, n = 7 (peptide)
peptide: IEGPTLRQWLAARAGGGGGGGIEGPTLRQWLAARA

Relative Potency (EC50), proliferation of murine 32D cells transfected with human mpl receptor: 4.5 log units of activity (1 unit is approximately 10-fold)
B13: TMP-(Gly)n-TMP, n = 8 (peptide)
peptide: IEGPTLRQWLAARAGGGGGGGGIEGPTLRQWLAARA

Relative Potency (EC50), proliferation of murine 32D cells transfected with human mpl receptor: 0.5 log units of activity (1 unit is approximately 10-fold)
B14: IEGPTLRQALAARA-GGGGGGGG-IEGPTLRQALAARA (SEQ ID NO. 13) (peptide)
peptide: B13 peptide with W9A, W31A

Relative Potency (EC50), proliferation of murine 32D cells transfected with human mpl receptor: 4 log units of activity (1 unit is approximately 10-fold)
B15: TMP-GGGNGSGG-TMP (SEQ ID NO. 19) (peptide)
peptide: B13 peptide with G18N, G20S

Relative Potency (EC50), proliferation of murine 32D cells transfected with human mpl receptor: 4 log units of activity (1 unit is approximately 10-fold)
B16: TMP-GGGKGGGG-TMP (SEQ ID NO. 14) (peptide)
peptide: B13 peptide with G18K

Relative Potency (EC50), proliferation of murine 32D cells transfected with human mpl receptor: 4 log units of activity (1 unit is approximately 10-fold)
B17: TMP-GGGCGGGG-TMP (SEQ ID NO. 16) (peptide)
peptide: B13 peptide with G18C

Relative Potency (EC50), proliferation of murine 32D cells transfected with human mpl receptor: 4 log units of activity (1 unit is approximately 10-fold)
B18: peptide 22 (dimer of a dimer, oxidised peptide 18) (peptide)
peptide: B13 peptide with G18C
modifications: also: homodimer: intermolecular disulfide between the linker Cys18 of two chains

Relative Potency (EC50), proliferation of murine 32D cells transfected with human mpl receptor: 5 log units of activity (1 unit is approximately 10-fold)
B19: TMP-GGGK(PEG)GGGG-TMP (SEQ ID NO. 17) (peptide)
peptide: B13 peptide with G18K
modifications: not fully specified (residue 18)

From patent publication US20050080014A1 (Amgen, published 2005)
